B1: tRNA^Sep: amber suppressor tRNA derived from Mj tRNA^Cys with C20U change and two anticodon mutations; SEQ ID NO:41 (nucleic acid)
chain: GCCGGGGTAGTCTAGGGGTTAGGCAGCGGACTGCAGATCCGCCTTACGTGGGTTCAAATCCCACCCCCGGCT
modifications: expressed or natural sequence

What was measured:
E. coli Top10ΔserB = test: CAT (UAG at position 112) suppression assay, chloramphenicol resistance; type: cell-based, Escherichia coli
Description: The suppressor tRNA^Sep was coexpressed with the indicated enzymes in E. coli Top10ΔserB. Selection was carried out on LB agar plates containing 2 mM Sep and various concentrations of chloramphenicol.
pCAT112TAG-SepT was created from pACYC 184. The gene encoding chloramphenicol acetyltransferae (CAT) was modified by quickchange mutagenesis to introduce an amber stop codon at position Asp112 (Wang L, et al. Science 292:498 (2001)). The resulting plasmid was PCR amplified using primers PBLAF (5′-TGCGCAATGCGGCCGCCCGTAGCGCCGATGGTAGTGT-3′, SEQ ID NO:9) and PBLAR (5′-ACACGGAGATCTCTAAAGTATATATGAGTAAAC-3′, SEQ ID NO: 10) and ligated with a PCR product containing a tRNA^Sep expression cassette from pSepT, created with primers TSEPF (5′-GCATGCGCCGCCAGCTGTTGCCCGTCTCGC-3′, SEQ ID NO:17) and TSEPR (5′-GCATAGATCTTCAGCTGGCGAAAGGGGGATG-3′, SEQ ID NO:18).
Efficient and selective addition of Sep to the E. coli genetic repertoire requires exclusive interaction of SepRS with tRNA^Sep for Sep-tRNA^Sep formation without interfering in the host translation system as well as a sufficient intracellular concentration of Sep. As E. coli has a Sep-compatible transporter (Wanner, B L. FEMS Microbiol Lett 79, 133 (1992)), Sep (2 mM) was added to the growth medium, and the endogenous serB gene encoding phosphoserine phosphatase was deleted in the E. coli test strain. To assess whether the Mj tRNA^Sep/Mmp SepRS pair is functional and orthogonal in E. coli, a suppression assay was performed that employed a chloramphenicol acetyltransferase (CAT) gene with a UAG stop codon at the permissive position 112 (wild-type amino acid: Asp) to produce chloramphenicol (Cm) acetyltransferase; then cell survival was measured in the presence of Sep and varying amounts of Cm. The different IC50 values (FIG. 2) relate to suppression efficiency (i.e., amount of CAT made dependent on the various transformed genes). When only tRNA^Sep is expressed (FIG. 2, second bar) Cm resistance increases about 3.3-fold over background (FIG. 2, first bar). Thus, tRNA^Sep can be aminoacylated to a certain degree by an unknown E. coli aminoacyl-tRNA synthetase (Gln is being incorporated at the amber stop codon). […] This may indicate that SepRS can out-compete any endogenous aminoacyl-tRNA synthetase and form Sep-tRNAS^Sep; however, this aminoacyl-tRNA is not delivered to the ribosome or not accommodated on the ribosome. […] Co-expression of tRNA^Sep, SepRS and SepCysS should result in formation of Sep-tRNA^Sep and subsequent SepCysS-mediated conversion to Cys-tRNA^Sep (A. Sauerwald et al., Science 307, 1969 (2005)). Indeed, a 2.3-fold increase in Cm resistance is observed (FIG. 2, sixth bar). This further supports the notion that while Sep-tRNA^Sep is synthesized, it cannot be used properly by the E. coli protein biosynthesis machinery.
Resulting pKD-SepRS-EFTu plasmids were transformed into E. coli Top10ΔserB containing pCAT112-SepT for a third round of selection which was carried out under the same conditions as the first. This time, individual colonies were isolated from agar plates and clones were tested for their ability to grow on Cm over a concentration range from […]. Total plasmid was purified from isolates showing strong Cm resistance, and pKD-SepRS-EFTu plasmids were subjected to sequencing. […]

[^14C]Sep-tRNA^Cys = EF-Tu hydrolysis protection assay with Sep-tRNA^Cys; type: binding, Methanocaldococcus jannaschii; details: pH 8.2; 40 μM factor, 2 μM [^14C]Sep-tRNA^Cys, 25° C.; FIG. 3 and FIG. 5B
Description: Protection of Sep-tRNA^Cys by EF-Tu was assayed as described earlier with slight modifications (Ling J, et al. RNA. 2007 November; 13(11):1881-6.). Briefly, EF-Tu or EF-Sep (both purified as maltose binding protein fusion proteins) were activated for 20 min. at 37° C. in buffer containing 100 mM Tris-HCl (pH 8.2), 120 mM NH4Cl, 7 mM MgCl2, 5 mM DTT, 5 mM phosphoenolpyruvate, 1.5 mM GTP, and 0.12 μg/μl pyruvate kinase. Hydrolysis of 2 μM [^14C]Sep-tRNA^Cys was then monitored at 25° C. in the presence of 40 μM EF-Tu (wt), EF-Sep, or BSA, respectively. Aliquots were taken from the reaction mix at indicated time points and spotted on 3MM filter discs presoaked with 10% trichloroacetic acid. Filters were washed with 5% trichloroacetic acid, dried, and radioactivity was measured by liquid scintillation counting.
(§1) To assay hydrolysis protection of acylated tRNA^Cys by EF-Tu, […] tRNA^Cys in vitro transcripts acylated with [^14C]Sep or [^35S]Cys, respectively, were phenol/chlorophorm extracted, and the aqueous phase was passed over Sephadex® G25 Microspin columns (GE Healthcare) equilibrated with water. […] Hydrolysis of 2 μM [^14C]Sep-tRNA^Cys was then monitored at 25° C. in the presence of 40 μM EF-Tu (wt), EF-Sep, or BSA, respectively. […] Filters were washed with 5% trichloroacetic acid, dried, and radioactivity was measured by liquid scintillation counting.

[^35S]Cys-tRNA^Cys = EF-Tu hydrolysis protection assay with Cys-tRNA^Cys; type: binding, Methanocaldococcus jannaschii; details: pH 8.2; FIG. 5A
Description: FIGS. 5A and 5B are graphs showing EF-Tu protects Cys-tRNA^Cys(FIG. 5A) but not Sep-tRNA^Cys (FIG. 5B) from deacylation. Hydrolysis of M. jannaschii [^35S]Cys-tRNA^Cys or [^14C]Sep-tRNA^Cys was determined at pH 8.2 and room temperature in the presence or absence of EF-Tu.
Given that EF-Tu is a component of quality control in protein synthesis (LaRiviere, FJ., et al. Science 294, 165 (2001)), it is highly plausible that Sep-tRNA^Sep may be rejected by EF-Tu in order not to interfere with the complicated cellular mechanism of phosphoprotein production. […] This assumption was tested in EF-Tu mediated Sep-tRNA hydrolysis protection experiments (J. Ling et al., Proc Natl Acad Sci USA 104, 15299 (2007)), and incubated recombinant E. coli EF-Tu with the Mj tRNA^Cys in vitro transcript either acylated with [^35S]Cys or [^14C]Sep at pH 8.2. […]
as §1

Mmp SepRS = test: In vitro aminoacylation of tRNA with Sep by Mmp SepRS; type: biochemical, Methanococcus maripaludis
Description: In vitro transcript of Methanocaldococcus jannaschii tRNA^Cys was prepared and acylated with [^14C]Sep (55 mCi/mmol) using recombinant Methanococcus maripaludis SepRS as described previously by Hohn M J, et al. Proc Natl Acad Sci USA. 2006 Nov. 28; 103(48):18095-100. Sep-tRNA^Cys was phenol/chlorophorm extracted, and the aqueous phase was passed over Sephadex G25 Microspin columns (GE Healthcare) equilibrated with water.
Total tRNA from E. coli Top10 or from E. coli Top10 complemented with pCysT or pSepT, respectively, was purified by standard procedures and acylated with [^14C]Sep by M. maripaludis SepRS as described previously. […] M. jannaschii tRNA^Cys contains m^1G37 when isolated from M. jannaschii. Since the E. coli methylase TrmD is known to methylate G37 of archaeal tRNA^Pro, it is believed that the in vivo expressed tRNA^Sep also carries the m^1G37 modification. In vitro transcript of M. jannaschii tRNA^Cys was prepared and acylated with [^14C]Sep or [^35S]Cys using recombinant M. maripaludis SepRS or CysRS. M. jannaschii tRNA^Cys transcript was chosen for these experiments because of the poor folding properties of in vitro transcribed M. maripaludis tRNA^Cys (Hohn, M. J. Proc Natl Acad Sci USA 103, 18095 (2006)).

Chain of Mmp SepRS (as listed by the source): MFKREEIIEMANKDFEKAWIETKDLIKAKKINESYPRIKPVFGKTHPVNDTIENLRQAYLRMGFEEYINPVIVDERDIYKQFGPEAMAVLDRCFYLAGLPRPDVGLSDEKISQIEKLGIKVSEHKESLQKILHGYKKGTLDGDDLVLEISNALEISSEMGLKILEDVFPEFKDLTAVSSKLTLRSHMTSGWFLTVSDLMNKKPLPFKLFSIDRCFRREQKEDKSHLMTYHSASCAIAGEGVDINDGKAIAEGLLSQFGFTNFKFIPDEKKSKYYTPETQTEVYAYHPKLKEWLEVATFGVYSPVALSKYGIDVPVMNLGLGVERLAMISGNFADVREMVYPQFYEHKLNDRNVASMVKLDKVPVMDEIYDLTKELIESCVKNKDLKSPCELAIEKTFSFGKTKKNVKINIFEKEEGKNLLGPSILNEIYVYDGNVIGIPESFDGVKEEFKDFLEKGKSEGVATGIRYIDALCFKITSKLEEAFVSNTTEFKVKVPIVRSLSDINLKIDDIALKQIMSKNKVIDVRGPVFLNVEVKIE

Molecule | Cm resistance (E. coli Top10ΔserB; tRNA^Sep and SepRS plus additional EF-Tu, FIG. 2 fifth bar) | protection of Sep-tRNA^Cys from deacylation ([^14C]Sep-tRNA^Cys) | protection of Cys-tRNA^Cys from deacylation ([^35S]Cys-tRNA^Cys) | activity of tRNA^Sep when compared to tRNA^Cys (Mmp SepRS; in vitro aminoacylation by Mmp SepRS, tRNA overexpressed in E. coli, effect of the anticodon change, FIG. 1C) | improvement of aminoacylation by SepRS through the C20U change (Mmp SepRS; tRNA^Sep derived from Mj tRNA^Cys, no effect on CysRS recognition) | increase in Cm resistance (E. coli Top10ΔserB; co-expression of tRNA^Sep and Mmp CysRS, FIG. 2 eight bar) | increase in Cm resistance (E. coli Top10ΔserB; co-expression of tRNA^Sep, SepRS and SepCysS, FIG. 2 sixth bar) | increase in Cm resistance over background (E. coli Top10ΔserB; only tRNA^Sep expressed, 2 mM Sep, FIG. 2 second bar) | Cm resistance (E. coli Top10ΔserB; simultaneous expression of tRNA^Sep and SepRS, FIG. 2 third bar)
EF-Tu: wild type recombinant E. coli elongation factor Tu | does not improve the result | significantly deacylated irrespective of the presence of EF-Tu | protected | – | – | – | – | – | –
B1 | – | – | – | about 40% | 2.5 fold | 12.3 fold | 2.3 fold | about 3.3 fold | does not provide Cm resistance
